Consider 3 molecules from patent publication US20150051146A1.

Test [1] deals with pro-HB-EGF on Vero cells. The test is described as follows: Schild regression from inhibition of diphtheria toxin cytotoxicity on Vero cells.
The target in test [2] is pro-HB-EGF on Vero cells. The description is as above. The source holds these as a separate data set.
The target of test [3] is pro-HB-EGF on Vero cells. The test is described as follows: ratio of Kd values from Schild regression (Vero cytotoxicity).

Where two headings read alike, the source gives them in different places.

“CRM197 (natural mutant of diphtheria toxin comprising the G52E mutation) (from UniProt P00587 26-560) (ligand)”: the Kd with pro-HB-EGF on Vero cells [1] and with pro-HB-EGF on Vero cells [2] was 3.1 nM throughout.

On to “wild-type DTR protein (DTRWT) (from UniProt P00587 405-560) (ligand)”, for which the Kd in the test with pro-HB-EGF on Vero cells [1] and in the test with pro-HB-EGF on Vero cells [2] was 6.5 nM each time. In addition, in the test with pro-HB-EGF on Vero cells [3], the fold lower affinity for HB-EGF and pro-HB-EGF against CRM197 was determined as 2 fold.

B1: Clone 1D6 (DTR carrying the mutations Y380K/Q387E/L390T) (designed binder)
chain: MGKSPGHKTEPFTHDGYAVSWNTVEDSIIRTGFQGESGHDIKITAENTPLPIAGVLLPTIPGKLDVNKSKTHISVNGRKIRMRCRAIDGDVTFCRPKSPVYVGNGVHANLHVAFHRSSSEKIHSNEISSDSIGVLGYQKTVDHTKVNSKLSLFFEIKS
Take B1: the Kd (in general, a measure of binding affinity in units of concentration) with pro-HB-EGF on Vero cells [2] was found to be 0.025 nM.
